In data set [1] the target is T1, Csa3a (SsCsa3a) (Saccharolobus solfataricus P2, UniProt Q97Y88 1-237).
T1 sequence: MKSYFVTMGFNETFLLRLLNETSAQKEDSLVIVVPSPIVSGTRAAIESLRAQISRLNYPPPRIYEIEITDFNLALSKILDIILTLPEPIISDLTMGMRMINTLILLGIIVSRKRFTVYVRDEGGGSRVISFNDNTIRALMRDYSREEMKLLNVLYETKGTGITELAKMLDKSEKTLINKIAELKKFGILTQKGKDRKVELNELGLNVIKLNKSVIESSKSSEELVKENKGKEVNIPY
Nature of the data set: fluorescence polarization. As to conditions: 37 C 30 min, 18 nM DNA (5.2 ng/uL), +/-10 uM cA4, 2% agarose, FP: 20 mM SPG, 50 mM NaCl, pH 6.5, 50 C (also 21 C), 30 nM DNA, ITC: 10 mM Tris. (In general: Polarisation of emitted light reports the rotation of a fluorescent probe.)

A further data set concerns the target T2, Csa3a (SsCsa3a, Sso1445) (Saccharolobus solfataricus, UniProt Q97Y88).
T2 construct: gene csa3; 6×His-tagged Sso1445 (pEXP14-6×His-Sso1445), homodimer; crystal model lacks residues 213–237 of both chains and 160–162, 174–176, 192–195 of chain A
T2 sequence (Q97Y88 1-237): T1 sequence
Description: ITC at […] °C; co-crystal structure at […] Å. The data set is classed as binding.

The target of data set [2] is T1, Csa3a (SsCsa3a). Description: ITC; 25 C; 250-500 uM cA4; n about 0.6 per dimer; endothermic; EMSA: TAE, 37 C 30 min, 18 nM DNA (5.2 ng/uL), +/-10 uM cA4, 2% agarose; FP: 20 mM SPG, 50 mM NaCl, pH 6.5, 50 C (also 21 C), 30 nM DNA; ITC: 10 mM Tris, 50 mM. As to conditions: protein: recombinant; tags: 6xHis (pEXP14-6xHis-Sso1445); chain copies: 2; cyclic, single copy per Csa3a dimer. For orientation: Isothermal titration calorimetry measures the heat released or taken up as one component is titrated into another.

Data set [3] concerns the molecule itself. Nature of the data set: crystal structure; Csa3a co-crystallised with cA4 by hanging drop vapor diffusion at 22 °C; 2.45 Å; space group P212121; one Csa3a dimer in the asymmetric unit.

For orientation: Kd means the constant that tells how readily two partners part at equilibrium.

Take 20 bp CAPPa, I-A (2) cas4a promoter: the dissociation constant (Kd) in the data set with Csa3a (SsCsa3a) [1] (10 uM cA4, 50 C, EMSA: TAE) was 2700 nM; with Csa3a (SsCsa3a) [1] (no cA4, 50 C, non-cooperative, EMSA: TAE) it was 3200 nM.
With 75 bp I-A (2) cas4a CAPPa fragment, the Kd was determined as 210 nM with Csa3a (SsCsa3a) [1] (10 uM cA4, 50 C, cooperative, EMSA: TAE) and 270 nM in the data set with Csa3a (SsCsa3a) [1] (no cA4, 50 C, cooperative, Hill about 2, EMSA: TAE).
`Nc1ncnc2c1ncn2[C@@H]1O[C@@H]2COP(=O)(O)O[C@H]3[C@@H](O)[C@H](n4cnc5c(N)ncnc54)O[C@@H]3COP(=O)(O)O[C@H]3[C@@H](O)[C@H](n4cnc5c(N)ncnc54)O[C@@H]3COP(=O)(O)O[C@H]3[C@@H](O)[C@H](n4cnc5c(N)ncnc54)O[C@@H]3COP(=O)(O)O[C@H]2[C@H]1O` [cA4, cyclic tetra-adenylate]: at Csa3a (SsCsa3a, Sso1445), the Kd lay in the range of 1000 to 1500 nM.
Regarding AAAA (ssRNA, cyclic, 3'-5' linked?) [cA4 (cyclic tetra-adenylate)], the Kd with Csa3a (SsCsa3a) [2] worked out at 1220 nM.

B1: Saccharolobus solfataricus Csa3a (Sso1445) (natural protein, UniProt Q97Y88 1-237, looked up)
chain: T1 sequence
notes: Csa3a (Sso1445) of Saccharolobus (Sulfolobus) solfataricus P2, with an N-terminal CARF domain and a C-terminal winged helix-turn-helix domain; also called SsCsa3a; SsCsa3; source: E. coli BL21 (DE3)-pRIL, purified (heat step at 60 °C, Ni-NTA, Superdex 75)
For the molecule B1, the binding result in data set [3] is recorded as “binds”.

For the origin of these results see article PMC8699464, “Cyclic Tetra-Adenylate (cA4) Recognition by Csa3; Implications for an Integrated Class 1 CRISPR-Cas Immune Response in Saccharolobus solfataricus” (Biomolecules, 2021).
